Data as given in patent US20250051474A1, “ANTI-CD97 ANTIBODIES AND ANTIBODY-DRUG CONJUGATES” (New York University, priority 2023, published 2025).

Key:
[1] = molecular target: T1, CD97 (ADGRE5) isoform 2 ectodomain, purified and biotinylated (human, UniProt P48960 21-552, biotinylated in vitro using the BirA enzyme); assay: bead-based binding titration (biotinylated antigen on streptavidin beads, flow cytometry), 1:1 fit [Continued]
T1 construct: the whole entry for isoform 2 is named here; also called CD97 isoform 2
T1 sequence: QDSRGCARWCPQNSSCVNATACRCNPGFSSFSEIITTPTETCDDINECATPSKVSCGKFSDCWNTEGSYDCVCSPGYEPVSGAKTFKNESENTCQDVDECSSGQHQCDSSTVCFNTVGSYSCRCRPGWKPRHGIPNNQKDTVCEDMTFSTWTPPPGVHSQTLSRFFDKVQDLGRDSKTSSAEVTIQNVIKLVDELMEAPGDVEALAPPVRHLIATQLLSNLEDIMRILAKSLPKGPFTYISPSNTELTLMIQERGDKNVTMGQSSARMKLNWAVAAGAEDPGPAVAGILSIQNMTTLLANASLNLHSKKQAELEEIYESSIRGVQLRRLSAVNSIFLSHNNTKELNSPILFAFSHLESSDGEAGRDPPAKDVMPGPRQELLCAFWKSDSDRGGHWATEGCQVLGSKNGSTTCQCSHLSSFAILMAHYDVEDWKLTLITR

[2] = molecular target: T2, CD97 (ADGRE5) isoform 1 ectodomain, purified and biotinylated (human, UniProt P48960 21-552, limits assumed, biotinylated in vitro using the BirA enzyme); assay: as above
T2 construct: the whole entry for isoform 1 is named here; also called CD97 isoform 1; Biotinylated CD97 isoform 1
T2 sequence: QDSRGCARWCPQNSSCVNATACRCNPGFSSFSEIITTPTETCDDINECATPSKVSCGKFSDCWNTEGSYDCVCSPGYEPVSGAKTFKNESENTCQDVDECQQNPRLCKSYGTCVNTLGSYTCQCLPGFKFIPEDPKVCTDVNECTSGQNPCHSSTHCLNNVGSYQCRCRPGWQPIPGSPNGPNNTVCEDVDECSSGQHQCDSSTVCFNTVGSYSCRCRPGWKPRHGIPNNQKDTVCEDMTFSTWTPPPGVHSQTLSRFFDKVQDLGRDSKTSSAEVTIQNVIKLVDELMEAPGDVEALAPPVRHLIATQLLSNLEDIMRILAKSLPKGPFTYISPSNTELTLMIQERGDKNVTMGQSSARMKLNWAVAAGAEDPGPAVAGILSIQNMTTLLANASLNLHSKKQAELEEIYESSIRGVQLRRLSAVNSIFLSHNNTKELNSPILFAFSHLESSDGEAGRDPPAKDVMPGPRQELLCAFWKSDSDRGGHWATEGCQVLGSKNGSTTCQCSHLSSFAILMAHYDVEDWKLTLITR

[3] = molecular target: T3, EMR2 (EGF-like module-containing mucin-like hormone receptor-like 2) isoform 4 ectodomain, purified and … (UniProt Q9UHX3-4 24-447, limits assumed, biotinylated in vitro using the BirA enzyme); assay: bead-based binding titration (biotinylated antigen on streptavidin beads, flow cytometry)
T3 construct: extracellular domain; Close homolog of CD97 used as specificity control
T3 sequence (looked up): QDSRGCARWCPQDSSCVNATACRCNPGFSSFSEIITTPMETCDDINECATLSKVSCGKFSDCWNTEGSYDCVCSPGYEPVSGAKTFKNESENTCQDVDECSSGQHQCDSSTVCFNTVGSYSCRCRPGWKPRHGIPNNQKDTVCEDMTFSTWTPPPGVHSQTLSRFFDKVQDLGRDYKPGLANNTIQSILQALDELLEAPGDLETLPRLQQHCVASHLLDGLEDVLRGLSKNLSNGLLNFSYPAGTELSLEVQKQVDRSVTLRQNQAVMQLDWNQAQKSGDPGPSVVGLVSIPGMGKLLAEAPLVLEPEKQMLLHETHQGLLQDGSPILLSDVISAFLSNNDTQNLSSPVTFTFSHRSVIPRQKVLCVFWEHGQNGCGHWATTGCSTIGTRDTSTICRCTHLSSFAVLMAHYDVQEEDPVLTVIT

[4] = molecular target: T1, CD97 (ADGRE5) isoform 2 ectodomain, …; assay: bead-based binding titration (biotinylated antigen on streptavidin beads, flow cytometry), 1:1 fit
[5] = molecular target: T2, CD97 (ADGRE5) isoform 1 ectodomain, …; assay: as above
CD97 isoform 1 = molecular target: T4, CD97 isoform 1 (Homo sapiens, UniProt P48960); assay: Bead-based binding assay of Fab clones; conditions: for binding of A8 CDRH3 mutants to CD97 isoform 1: Fab format, compared with wild type A8
T4 construct: The genes encoding the ectodomains of CD97 (isoforms 1 and 2) and EMR2 (isoforms 1 and 4); inferred from IMAC purification; inferred from BirA biotinylation; made in house; host or cells: expi293F
T4 sequence (P48960 21-552 limits assumed): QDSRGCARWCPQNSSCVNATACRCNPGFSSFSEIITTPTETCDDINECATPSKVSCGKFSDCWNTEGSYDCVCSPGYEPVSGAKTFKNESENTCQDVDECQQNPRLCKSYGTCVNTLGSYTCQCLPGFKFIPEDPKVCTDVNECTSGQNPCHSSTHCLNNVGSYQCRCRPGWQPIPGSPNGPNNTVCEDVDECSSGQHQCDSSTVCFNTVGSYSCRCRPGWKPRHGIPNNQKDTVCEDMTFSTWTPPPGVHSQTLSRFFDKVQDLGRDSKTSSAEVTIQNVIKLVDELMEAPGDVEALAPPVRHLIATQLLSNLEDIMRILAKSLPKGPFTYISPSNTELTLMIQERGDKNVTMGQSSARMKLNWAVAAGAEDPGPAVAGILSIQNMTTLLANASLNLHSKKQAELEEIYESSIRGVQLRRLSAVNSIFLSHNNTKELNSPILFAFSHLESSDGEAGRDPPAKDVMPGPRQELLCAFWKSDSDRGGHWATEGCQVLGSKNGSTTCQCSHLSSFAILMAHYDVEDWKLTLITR
Experimental: Binding titration of the Fab clones was performed by a bead binding assay, as described previously (7,8). Briefly, biotinylated antigens were immobilized on Dynabeads M-280 streptavidin (Thermo Fisher). The biotinylated Fab clones were titrated into a solution containing the antigen-coated beads. After incubation, the beads were washed three times and incubated with anti-human F(ab′)2-Alexa Fluor 647 (Jackson ImmunoResearch). The beads were further washed three times and analyzed on a HyperCyt (Intellicyt).
The genes encoding the ectodomains of CD97 (isoforms 1 and 2) and EMR2 (isoforms 1 and 4) (FIG. 1) were synthesized (Integrated DNA Technologies) and cloned into the mammalian expression vector pBCAG. The expi293F cells (Thermo Fisher) were transfected with the vectors using the ExpiFectamine 293 transfection kit (Thermo Fisher) according to the manufacturer's protocol. The cells were incubated at 37° C. with 8% CO2. The proteins were purified from the cell culture supernatant by immobilized metal affinity chromatography (IMAC). The purified proteins were biotinylated in vitro using the BirA enzyme in the presence of 0.5 mM Biotin and 10 mM ATP. After the removal of the BirA enzyme by IMAC, the proteins were further purified by size exclusion chromatography using a Superdex 200 10/300 Increase (Cytiva). The purity of the proteins was confirmed by SDS-PAGE.

B1: Fab D9 (Fab, V domains shown)
VH: EVQLVESGGGLVQPGGSLRLSCAASGFTVSSSSIHWVRQAPGKGLEWVASISSYYGYTSYADSVKGRFTISADTSKNTAYLQMNSLRAEDTAVYYCARYPMFSYYYWYYGMDYWGQGTLVTVSS
VL: DIQMTQSPSSLSASVGDRVTITCRASQSVSSAVAWYQQKPGKAPKLLIYSASSLYSGVPSRFSGSRSGTDFTLTISSLQPEDFATYYCQQSSGYPVTFGQGTKVEIKR
notes: first discovery campaign; also called Antibody Clone D9
- Kd [1]: 3.6 nM
- Kd [2]: 3.4 nM

B2: Fab D12 (Fab, V domains shown)
VH: EVQLVESGGGLVQPGGSLRLSCAASGFTFSSSSIHWVRQAPGKGLEWVASISSSSGSTSYADSVKGRFTISADTSKNTAYLQMNSLRAEDTAVYYCARIRHYHWYEIPYWDWAIDYWGQGTLVTVSS
VL: DIQMTQSPSSLSASVGDRVTITCRASQSVSSAVAWYQQKPGKAPKLLIYSASSLYSGVPSRFSGSRSGTDFTLTISSLQPEDFATYYCQQSSSSLITFGQGTKVEIKR
notes: first discovery campaign; also called Antibody Clone D12
- Kd [1]: 3.2 nM
- Kd [2]: 3 nM

B3: Fab 2A5 (Fab, V domains shown)
VH: EVQLVESGGGLVQPGGSLRLSCAASGFTFSSSSIHWVRQAPGKGLEWVASISSSYGSTSYADSVKGRFTISADTSKNTAYLQMNSLRAEDTAVYYCARGWAYSYWYYSHYYEYEVALDYWGQGTLVTVSS
VL: DIQMTQSPSSLSASVGDRVTITCRASQSVSSAVAWYQQKPGKAPKLLIYSASSLYSGVPSRFSGSRSGTDFTLTISSLQPEDFATYYCQQSKFSSPVTFGQGTKVEIKR
notes: second discovery campaign; biotinylated Fab in the bead assay; also called Antibody Clone 2A5
- binding result [3]: no binding (tested: 50 nM)
- Kd [4]: 2 nM
- Kd [5]: 2.6 nM

B4: Fab 2X10 (Fab, V domains shown)
VH: EVQLVESGGGLVQPGGSLRLSCAASGFTFSSSSIHWVRQAPGKGLEWVASISSSSGSTSYADSVKGRFTISADTSKNTAYLQMNSLRAEDTAVYYCARSYWDMYIYWYYYVKQSRGMDYWGQGTLVTVSS
VL: DIQMTQSPSSLSASVGDRVTITCRASQSVSSAVAWYQQKPGKAPKLLIYSASSLYSGVPSRFSGSRSGTDFTLTISSLQPEDFATYYCQQSSSSLITFGQGTKVEIKR
notes: second discovery campaign; biotinylated Fab in the bead assay; also called Antibody Clone 2X10
- binding result [3]: no binding (tested: 100 nM)
- Kd [4]: 41 nM
- Kd [5]: 54 nM

B5: Fab 2X12 (Fab, V domains shown)
VH: EVQLVESGGGLVQPGGSLRLSCAASGFTISSSSIHWVRQAPGKGLEWVASISSSSSYTSYADSVKGRFTISADTSKNTAYLQMNSLRAEDTAVYYCARMDISYYYYEWGFESAYYGMDYWGQGTLVTVSS
VL: DIQMTQSPSSLSASVGDRVTITCRASQSVSSAVAWYQQKPGKAPKLLIYSASSLYSGVPSRFSGSRSGTDFTLTISSLQPEDFATYYCQQWWGPELVTFGQGTKVEIKR
notes: second discovery campaign; biotinylated Fab in the bead assay; also called Antibody Clone 2X12
- binding result [3]: no binding (tested: 100 nM)
- Kd [4]: 29 nM
- Kd [5]: 22 nM

B6: Fab 2Z3 (Fab, V domains shown)
VH: EVQLVESGGGLVQPGGSLRLSCAASGFTFSSSSIHWVRQAPGKGLEWVASISSSSGSTSYADSVKGRFTISADTSKNTAYLQMNSLRAEDTAVYYCARVLLGKFWYYNYYEYSAMDYWGQGTLVTVSS
VL: DIQMTQSPSSLSASVGDRVTITCRASQSVSSAVAWYQQKPGKAPKLLIYSASSLYSGVPSRFSGSRSGTDFTLTISSLQPEDFATYYCQQSSSSLITFGQGTKVEIKR
notes: second discovery campaign; biotinylated Fab in the bead assay; also called Antibody Clone 2Z3
- binding result [3]: no binding (tested: 50 nM)
- Kd [4]: 7.1 nM
- Kd [5]: 7.1 nM

B7: C27: anti-CD97 antibody clone, VL SEQ ID NO: 21, VH SEQ ID NO: 46 (antibody, V domains shown)
VH: EVQLVESGGGLVQPGGSLRLSCAASGFTLSSSSIHWVRQAPGKGLEWVASIYSYYGSTYYADSVKGRFTISADTSKNTAYLQMNSLRAEDTAVYYCARYRGNMYYWESWYGSYWALDYWGQGTLVTVSS
VL: DIQMTQSPSSLSASVGDRVTITCRASQSVSSAVAWYQQKPGKAPKLLIYSASSLYSGVPSRFSGSRSGTDFTLTISSLQPEDFATYYCQQSSSSLITFGQGTKVEIKRTV
- binding to CD97 isoform 1 (CD97 isoform 1; Fab clones of the first antibody discovery campaign, purified biotinylated antigen on beads): bound only to CD97 isoform 1

B8: A8 N100bHE: A8 mutant, VL SEQ ID NO: 9, VH SEQ ID NO: 109 (antibody, V domains shown)
VH: EVQLVESGGGLVQPGGSLRLSCAASGFTISSYSIHWVRQAPGKGLEWVASISPYYGSTSYADSVKGRFTISADTSKNTAYLQMNSLRAEDTAVYYCARSWYYYEQEPYWYQKEEQALDYWGQGTLVTVSS
VL: DIQMTQSPSSLSASVGDRVTITCRASQSVSSAVAWYQQKPGKAPKLLIYSASSLYSGVPSRFSGSRSGTDFTLTISSLQPEDFATYYCQQSVYSPVTFGQGTKVEIKRTV
- binding of A8 CDRH3 mutants to CD97 isoform 1 (CD97 isoform 1): substantially reduced or abolished binding to CD97

B9: A8 W100eHA: A8 mutant, VL SEQ ID NO: 9, VH SEQ ID NO: 110 (antibody, V domains shown)
VH: EVQLVESGGGLVQPGGSLRLSCAASGFTISSYSIHWVRQAPGKGLEWVASISPYYGSTSYADSVKGRFTISADTSKNTAYLQMNSLRAEDTAVYYCARSWYYYEQNPYAYQKEEQALDYWGQGTLVTVSS
VL: DIQMTQSPSSLSASVGDRVTITCRASQSVSSAVAWYQQKPGKAPKLLIYSASSLYSGVPSRFSGSRSGTDFTLTISSLQPEDFATYYCQQSVYSPVTFGQGTKVEIKRTV
- binding of A8 CDRH3 mutants to CD97 isoform 1 (CD97 isoform 1): substantially reduced or abolished binding to CD97

B10: A8 Y100fHA: A8 mutant, VL SEQ ID NO: 9, VH SEQ ID NO: 111 (antibody, V domains shown)
VH: EVQLVESGGGLVQPGGSLRLSCAASGFTISSYSIHWVRQAPGKGLEWVASISPYYGSTSYADSVKGRFTISADTSKNTAYLQMNSLRAEDTAVYYCARSWYYYEQNPYWAQKEEQALDYWGQGTLVTVSS
VL: DIQMTQSPSSLSASVGDRVTITCRASQSVSSAVAWYQQKPGKAPKLLIYSASSLYSGVPSRFSGSRSGTDFTLTISSLQPEDFATYYCQQSVYSPVTFGQGTKVEIKRTV
- binding of A8 CDRH3 mutants to CD97 isoform 1 (CD97 isoform 1): substantially reduced or abolished binding to CD97
